Assay results taken from US20180333469A1 (PORTOLA PHARMACEUTICALS, published 2018).

T1: tissue factor pathway inhibitor (TFPI) (UniProt P10646 29-304, limits assumed)
T1 sequence (looked up): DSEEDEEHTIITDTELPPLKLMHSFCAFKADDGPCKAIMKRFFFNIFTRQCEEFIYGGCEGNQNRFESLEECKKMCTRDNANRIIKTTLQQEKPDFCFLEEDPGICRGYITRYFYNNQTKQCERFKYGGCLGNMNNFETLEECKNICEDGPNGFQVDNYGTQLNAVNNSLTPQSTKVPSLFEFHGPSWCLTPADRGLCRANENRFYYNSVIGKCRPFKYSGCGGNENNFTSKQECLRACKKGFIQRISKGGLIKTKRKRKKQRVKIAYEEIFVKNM

T2: factor VII (fVII) (UniProt P08709 61-466)
T2 sequence (looked up): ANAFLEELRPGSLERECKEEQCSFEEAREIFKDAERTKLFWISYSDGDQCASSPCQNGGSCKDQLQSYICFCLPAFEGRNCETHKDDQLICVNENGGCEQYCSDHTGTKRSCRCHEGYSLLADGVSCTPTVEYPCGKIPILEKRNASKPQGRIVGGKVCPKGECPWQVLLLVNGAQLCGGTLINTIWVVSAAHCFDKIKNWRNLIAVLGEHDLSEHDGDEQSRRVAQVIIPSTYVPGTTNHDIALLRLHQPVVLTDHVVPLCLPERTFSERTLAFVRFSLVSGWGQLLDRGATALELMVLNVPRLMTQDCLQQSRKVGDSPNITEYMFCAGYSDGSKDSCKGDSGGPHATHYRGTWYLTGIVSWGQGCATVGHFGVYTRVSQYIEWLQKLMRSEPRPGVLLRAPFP

T3: α-2-macroglobulin (UniProt P01023 24-1474)
T3 sequence (looked up): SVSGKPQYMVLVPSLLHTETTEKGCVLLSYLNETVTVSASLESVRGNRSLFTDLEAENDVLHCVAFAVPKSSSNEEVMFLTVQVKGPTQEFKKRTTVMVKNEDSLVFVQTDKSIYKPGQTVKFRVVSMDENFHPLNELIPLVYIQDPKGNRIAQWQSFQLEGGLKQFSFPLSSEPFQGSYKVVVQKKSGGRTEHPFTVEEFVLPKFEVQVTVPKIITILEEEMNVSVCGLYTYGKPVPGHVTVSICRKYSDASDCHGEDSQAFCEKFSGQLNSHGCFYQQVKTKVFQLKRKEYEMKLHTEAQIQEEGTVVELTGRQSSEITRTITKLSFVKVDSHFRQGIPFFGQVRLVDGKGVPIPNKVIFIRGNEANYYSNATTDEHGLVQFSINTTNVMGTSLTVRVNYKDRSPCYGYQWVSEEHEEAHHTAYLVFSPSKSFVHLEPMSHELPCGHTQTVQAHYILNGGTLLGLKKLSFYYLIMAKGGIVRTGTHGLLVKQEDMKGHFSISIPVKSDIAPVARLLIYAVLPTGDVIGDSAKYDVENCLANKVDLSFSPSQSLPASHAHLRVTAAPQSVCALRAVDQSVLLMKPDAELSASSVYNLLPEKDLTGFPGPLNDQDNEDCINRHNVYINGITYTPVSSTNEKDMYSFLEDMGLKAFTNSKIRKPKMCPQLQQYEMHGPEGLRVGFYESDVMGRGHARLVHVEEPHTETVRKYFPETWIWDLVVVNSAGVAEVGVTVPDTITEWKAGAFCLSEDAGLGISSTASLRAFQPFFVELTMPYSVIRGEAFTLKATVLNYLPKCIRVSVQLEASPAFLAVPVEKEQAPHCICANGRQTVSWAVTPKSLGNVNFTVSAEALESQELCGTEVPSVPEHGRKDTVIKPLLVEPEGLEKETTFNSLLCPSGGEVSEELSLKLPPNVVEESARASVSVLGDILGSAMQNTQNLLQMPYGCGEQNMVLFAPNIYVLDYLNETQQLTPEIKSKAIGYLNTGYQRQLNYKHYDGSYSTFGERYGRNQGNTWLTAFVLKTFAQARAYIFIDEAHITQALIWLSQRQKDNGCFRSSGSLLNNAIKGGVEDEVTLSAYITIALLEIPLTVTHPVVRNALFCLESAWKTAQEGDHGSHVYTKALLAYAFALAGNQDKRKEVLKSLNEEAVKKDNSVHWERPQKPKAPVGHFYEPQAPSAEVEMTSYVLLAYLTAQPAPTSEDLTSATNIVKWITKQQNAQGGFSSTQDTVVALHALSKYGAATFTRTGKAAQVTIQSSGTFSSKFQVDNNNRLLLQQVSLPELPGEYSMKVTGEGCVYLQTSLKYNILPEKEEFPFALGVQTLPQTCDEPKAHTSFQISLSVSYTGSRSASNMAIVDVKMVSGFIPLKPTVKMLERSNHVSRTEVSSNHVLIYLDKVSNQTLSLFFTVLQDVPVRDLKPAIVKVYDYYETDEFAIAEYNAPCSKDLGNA


Tests used:
[1] = target: T1, tissue factor pathway inhibitor (TFPI); assay: cell-based or functional assay
[2] = target: T1, tissue factor pathway inhibitor (TFPI); assay: Kd of fXa derivative-TFPI over Ki of TFPI-fXa, fXa chromogenic assay (FIG. 1C)
[3] = target: T1, tissue factor pathway inhibitor (TFPI); assay: competition in the fXa chromogenic activity assay: SEQ ID NO: 3 competes with fXa (1.0 nM) for TFPI (1.0 nM)
[4] = target: T2, factor VII (fVII); assay: SPR, Biacore 3000, fXa derivative immobilized on CM-5 chip
Experimental: (§1) A few major plasma proteins, including tissue factor pathway inhibitor (TFPI), antithrombin III (ATIII), α-2-macroglobulin, α-1-antitrypsin, factor VII (fVII), factor X (fX), prothrombin, and factor V (fV), were tested for their binding affinity to a wild-type factor Xa (fXa) and two individual preparations (Prep 1 and Prep 2) of the fXa derivative (SEQ ID NO: 3). The binding experiment was conducted with a Biacore® 3000 with the fXa derivative immobilized on a CM-5 sensor chip according to manufacturer's instruction.

[5] = target: T1, tissue factor pathway inhibitor (TFPI); assay: Kd of fXa derivative-TFPI over Ki of TFPI-fXa, fXa chromogenic assay (FIG. 1D)
Experimental: The binding kinetics were determined using three different concentrations of the fXa derivative (0, 1 nM, and 5 nM) and escalating doses of TFPI, up to about 12 nM. fXa chromogenic activity was measured following a 2 hour incubation of fXa (1 nM). Residual fXa activity was measured by cleavage of the peptidyl substrate Spectrozyme-fXa (100 μM).

[6] = target: T1, tissue factor pathway inhibitor (TFPI); assay: competition in the fXa chromogenic activity assay: SEQ ID NO: 3 competes with fXa (0.5 nM) for TFPI (1.0 nM)
[7] = target: T4, factor X (fX) (UniProt P00742 41-488); assay: SPR, Biacore 3000, CM-5 chip (Prep 1)
Experimental: as §1

[8] = target: T5, α-1-antitrypsin (UniProt P01009 25-418); assay: SPR, Biacore 3000, CM-5 chip (Prep 1)
Experimental: as §1

[9] = target: T3, α-2-macroglobulin; assay: SPR, Biacore 3000, CM-5 chip (Prep 1)
Experimental: as §1

[10] = target: T6, prothrombin (UniProt P00734 44-622); assay: SPR, Biacore 3000, CM-5 chip (Prep 1)
Experimental: as §1

[11] = target: T7, factor V (fV) (UniProt P12259 29-2224); assay: SPR, Biacore 3000, CM-5 chip (Prep 1)
Experimental: as §1

[12] = target: T4, factor X (fX); assay: SPR, Biacore 3000, CM-5 chip
Experimental: as §1

[13] = target: T2, factor VII (fVII); assay: SPR, Biacore 3000, CM-5 chip
Experimental: as §1

[14] = target: T5, α-1-antitrypsin; assay: SPR, Biacore 3000, CM-5 chip
Experimental: as §1

[15] = target: T3, α-2-macroglobulin; assay: SPR, Biacore 3000, CM-5 chip
Experimental: as §1

[16] = target: antithrombin III (ATIII) (UniProt P01008 33-464); assay: SPR, Biacore 3000, CM-5 chip
Experimental: as §1

[17] = target: T6, prothrombin; assay: SPR, Biacore 3000, CM-5 chip
Experimental: as §1

[18] = target: T7, factor V (fV); assay: SPR, Biacore 3000, CM-5 chip
Experimental: as §1

T5 sequence (P01009 25-418 limits assumed): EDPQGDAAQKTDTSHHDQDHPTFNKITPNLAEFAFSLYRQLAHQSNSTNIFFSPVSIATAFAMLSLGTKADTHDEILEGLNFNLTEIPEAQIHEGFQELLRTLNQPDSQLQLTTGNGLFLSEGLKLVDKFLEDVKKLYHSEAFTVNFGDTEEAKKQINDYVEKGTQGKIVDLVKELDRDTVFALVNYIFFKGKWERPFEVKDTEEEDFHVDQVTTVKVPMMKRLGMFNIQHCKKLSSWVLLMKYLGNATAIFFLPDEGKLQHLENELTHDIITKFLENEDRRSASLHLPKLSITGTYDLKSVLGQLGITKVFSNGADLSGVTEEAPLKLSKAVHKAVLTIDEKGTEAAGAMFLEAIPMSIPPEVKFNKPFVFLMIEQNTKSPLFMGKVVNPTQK
T7 sequence (P12259 29-2224 limits assumed): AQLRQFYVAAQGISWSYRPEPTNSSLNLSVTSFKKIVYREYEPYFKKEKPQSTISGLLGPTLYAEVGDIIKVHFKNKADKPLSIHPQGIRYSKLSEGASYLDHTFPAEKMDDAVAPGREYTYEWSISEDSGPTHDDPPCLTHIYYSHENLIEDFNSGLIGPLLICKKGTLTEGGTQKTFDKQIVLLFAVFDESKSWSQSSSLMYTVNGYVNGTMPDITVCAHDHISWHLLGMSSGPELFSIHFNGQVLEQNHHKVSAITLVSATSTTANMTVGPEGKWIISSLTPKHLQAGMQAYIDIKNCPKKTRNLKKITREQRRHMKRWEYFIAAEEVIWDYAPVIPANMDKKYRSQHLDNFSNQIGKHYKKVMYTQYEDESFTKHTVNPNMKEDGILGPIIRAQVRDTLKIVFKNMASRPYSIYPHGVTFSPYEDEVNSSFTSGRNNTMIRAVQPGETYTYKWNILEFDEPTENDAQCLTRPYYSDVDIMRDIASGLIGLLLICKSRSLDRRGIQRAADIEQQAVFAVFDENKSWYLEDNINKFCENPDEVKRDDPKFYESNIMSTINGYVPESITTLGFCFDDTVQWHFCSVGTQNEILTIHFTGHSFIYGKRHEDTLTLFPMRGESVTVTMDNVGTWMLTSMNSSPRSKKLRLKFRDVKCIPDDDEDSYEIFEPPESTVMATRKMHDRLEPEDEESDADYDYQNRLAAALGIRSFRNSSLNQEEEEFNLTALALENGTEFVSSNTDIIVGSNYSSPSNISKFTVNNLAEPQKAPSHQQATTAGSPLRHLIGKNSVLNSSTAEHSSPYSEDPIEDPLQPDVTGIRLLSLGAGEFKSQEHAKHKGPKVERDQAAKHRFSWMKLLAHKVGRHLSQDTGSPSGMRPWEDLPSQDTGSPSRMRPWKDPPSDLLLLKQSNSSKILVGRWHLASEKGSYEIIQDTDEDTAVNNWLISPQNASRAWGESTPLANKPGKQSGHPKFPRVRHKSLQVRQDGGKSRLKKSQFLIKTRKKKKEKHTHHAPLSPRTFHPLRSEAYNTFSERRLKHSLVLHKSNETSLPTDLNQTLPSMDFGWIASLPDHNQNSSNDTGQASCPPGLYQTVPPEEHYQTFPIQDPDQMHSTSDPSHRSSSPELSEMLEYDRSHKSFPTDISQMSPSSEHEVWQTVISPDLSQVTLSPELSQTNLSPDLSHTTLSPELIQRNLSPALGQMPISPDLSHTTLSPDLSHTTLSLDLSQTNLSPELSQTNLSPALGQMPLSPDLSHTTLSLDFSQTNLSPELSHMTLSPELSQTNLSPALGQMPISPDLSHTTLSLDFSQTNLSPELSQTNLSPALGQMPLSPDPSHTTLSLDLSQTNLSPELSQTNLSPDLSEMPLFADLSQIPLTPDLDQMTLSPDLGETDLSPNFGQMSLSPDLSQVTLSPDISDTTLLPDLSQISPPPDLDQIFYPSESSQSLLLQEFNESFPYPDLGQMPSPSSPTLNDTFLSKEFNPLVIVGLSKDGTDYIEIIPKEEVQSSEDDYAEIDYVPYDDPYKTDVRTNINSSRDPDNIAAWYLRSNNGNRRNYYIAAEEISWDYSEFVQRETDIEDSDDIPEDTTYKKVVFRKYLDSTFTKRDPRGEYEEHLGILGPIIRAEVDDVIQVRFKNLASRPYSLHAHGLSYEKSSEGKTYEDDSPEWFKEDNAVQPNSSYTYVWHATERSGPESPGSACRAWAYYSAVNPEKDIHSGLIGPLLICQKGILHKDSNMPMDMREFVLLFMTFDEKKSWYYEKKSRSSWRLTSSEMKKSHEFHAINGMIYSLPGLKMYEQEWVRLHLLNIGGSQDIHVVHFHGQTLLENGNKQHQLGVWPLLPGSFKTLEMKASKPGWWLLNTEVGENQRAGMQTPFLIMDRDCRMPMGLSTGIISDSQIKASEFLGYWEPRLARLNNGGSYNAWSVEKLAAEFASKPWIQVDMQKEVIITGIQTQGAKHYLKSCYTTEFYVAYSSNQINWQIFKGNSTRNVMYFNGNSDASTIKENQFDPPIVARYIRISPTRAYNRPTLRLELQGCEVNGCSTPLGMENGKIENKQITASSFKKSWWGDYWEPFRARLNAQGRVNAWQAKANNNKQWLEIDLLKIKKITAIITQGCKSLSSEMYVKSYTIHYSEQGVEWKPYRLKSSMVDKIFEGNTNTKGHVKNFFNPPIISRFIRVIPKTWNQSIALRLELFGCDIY
antithrombin III (ATIII), sequence (P01008 33-464 limits assumed): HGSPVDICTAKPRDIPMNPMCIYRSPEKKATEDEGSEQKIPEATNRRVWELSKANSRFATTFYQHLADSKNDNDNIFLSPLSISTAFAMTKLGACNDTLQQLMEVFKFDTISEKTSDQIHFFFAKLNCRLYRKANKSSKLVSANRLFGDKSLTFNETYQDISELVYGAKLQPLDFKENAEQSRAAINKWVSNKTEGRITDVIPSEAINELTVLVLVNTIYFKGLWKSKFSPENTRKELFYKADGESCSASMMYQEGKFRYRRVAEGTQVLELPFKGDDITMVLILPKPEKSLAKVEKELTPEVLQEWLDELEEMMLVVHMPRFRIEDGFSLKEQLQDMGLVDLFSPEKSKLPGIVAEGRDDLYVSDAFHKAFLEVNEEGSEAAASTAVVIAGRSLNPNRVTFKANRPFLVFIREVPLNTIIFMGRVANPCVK

EC50 (read off the curve): fXa formed after 15 min by fVIIa/TF with 2.4 nM TFPI [1] [nM] | Ratio (Kd/Ki) [2] | EC50 (read off the curve) [3] [nM] | Kd [4] [nM] | Ratio (Kd/Ki) [5] | EC50 (read off the curve) [6] [nM] | binding result [7] | binding result [8] | binding result [9] | binding result [10] | binding result [11] | binding result [12] | Kd [13] [nM] | binding result [14] | binding result [15] | Kd [16] [nM] | binding result [17] | binding result [18] | Binder
~5 | 2.69 | ~2 | 2780 | 4.97 | ~2 | no binding | no binding | no binding | no binding | no binding |  |  |  |  |  |  |  | fXa derivative (SEQ ID NO: 3) (other, Prep 1 and Prep 2 are two preparations of the same molecule; also called fXa derivative Prep 1; fXa derivative Prep 2) light: ANSFLFWNKYKDGDQCETSPCQNQGKCKDGLGEYTCTCLEGFEGKNCELFTRKLCSLDNGDCDQFCHEEQNSVVCSCARGYTLADNGKACIPTGPYPCGKQTLER heavy: IVGGQECKDGECPWQALLINEENEGFCGGTILSEFYILTAAHCLYQAKRFKVRVGDRNTEQEEGGEAVHEVEVVIKHNRFTKETYDFDIAVLRLKTPITFRMNVAPACLPERDWAESTLMTQKTGIVSGFGRTHEKGRQSTRLKMLEVPYVDRNSCKLSSSFIITQNMFCAGYDTKQEDACQGDAGGPHVTRFKDTYFVTGIVSWGEGCARKGKYGIYTKVTAFLKWIDRSMKTRGLPKAKSHAPEVITSSPLK
 |  |  |  |  |  |  |  |  |  |  | no binding | 2970 | no binding | no binding | 1060 to 13200 | no binding | no binding | wild-type factor Xa (fXa) (enzyme, 11 gamma-carboxyglutamic acid residues (Gla) in the Gla domain, residues 1-45 of SEQ ID NO. 1) light: ANSFLEEMKKGHLERECMEETCSYEEAREVFEDSDKTNEFWNKYKDGDQCETSPCQNQGKCKDGLGEYTCTCLEGFEGKNCELFTRKLCSLDNGDCDQFCHEEQNSVVCSCARGYTLADNGKACIPTGPYPCGKQTLER heavy: IVGGQECKDGECPWQALLINEENEGFCGGTILSEFYILTAAHCLYQAKRFKVRVGDRNTEQEEGGEAVHEVEVVIKHNRFTKETYDFDIAVLRLKTPITFRMNVAPACLPERDWAESTLMTQKTGIVSGFGRTHEKGRQSTRLKMLEVPYVDRNSCKLSSSFIITQNMFCAGYDTKQEDACQGDSGGPHVTRFKDTYFVTGIVSWGEGCARKGKYGIYTKVTAFLKWIDRSMKTRGLPKAKSHAPEVITSSPLK
